The source of these data is article PMC7782405 (Molecular Imaging and Biology, 2020).

One data set has as its system U-87MG cells. The experiment in a line: Cell internalization assay. Particulars: for specific surface-bound fraction: all time points. It is filed as cell-based, human. As for the experimental part: For cell internalization, U-87MG cells were seeded at a density of 10^6 cells per well in 6-well plates and incubated overnight with medium (Dulbecco modified Eagle medium with GlutaMAX containing 10 % fetal bovine serum, 1 % 10,000 U ml^−1 penicillin and 10,000 U ml^−1 streptomycin, 1 % sodium-pyruvate 100 mM). After 24 h, the medium was removed and the cells were washed with PBS. Approximately 2.5 pmol of [^64Cu]Cu-8 and [^64Cu]Cu-9 was added to the cells (in triplicates) to give a final volume of 1.5 ml PBS in each well followed by incubation for 1 h at 37 °C, 5 % CO2. […] At each time point, the internalization was stopped by removing the medium and washing the cells twice with ice-cold PBS. To remove the receptor-bound radioligand, an acid wash was carried out twice with a 0.1 M glycine buffer pH 2.8 for 5 min on ice. Finally, cells were solubilized with 1 N NaOH. Radioactivity of cell fractions (supernatant, receptor-bound, and internalized) was measured by a Perkin Elmer gamma counter. Experiments were performed twice in triplicate.

A short description of data set [1]: in vivo. Details: species or system mice. The conditions noted are these: female, athymic Balb/c nude, mouse, in vivo, iv, total radioactivity. How it is done: (§1) All animal experiments complied with the current laws of the Federal Republic of Germany and were conducted according to German Animal welfare guidelines. Normal female athymic Balb/c nude mice (17–20 g, 4–6 weeks old) were obtained from Janvier SAS (St. Berthevin Cedex, France). Mice were provided with food and water ad libitum. U-87MG tumors were induced on the right shoulder by sub-cutaneous injection of 5 × 10^6 cells in a 100 μl cell suspension of a 1:1 v/v mixture of media with reconstituted basement membrane (GFR BD Matrigel™, Corning BV, Amsterdam, Holland). For each compound, a total of three animals were injected with [^64Cu]Cu-8 and [^64Cu]Cu-9 (~ 500 pmol, 7–11 MBq) in 100 μl sterile filtered phosphate-buffered saline via a tail vein. At 1 h p.i., animals were sacrificed by isoflurane anesthesia. Organs of interest were dissected, weighed, and assayed for radioactivity in a gamma counter. The percent injected activity per gram (%IA g^−1) for each tissue was calculated by comparison of the tissue counts to a standard sample prepared from the injectate.

Data set [2] concerns mice bearing U-87MG xenografts. In words: in vivo. The conditions noted are these: for reduction of uptake in U-87MG xenografts by co-injection of c(RGDfK) 7: 1 h p.i. How it is done: as §1
The nature of data set [3]: in vivo. Also on record: species or system mice. The conditions noted are these: female, athymic Balb/c nude, mouse, iv, total radioactivity, Tumor uptake (PET). As for the experimental part: (§2) All animal experiments complied with the current laws of the Federal Republic of Germany and were conducted according to German Animal welfare guidelines. Normal female athymic Balb/c nude mice (17–20 g, 4–6 weeks old) were obtained from Janvier SAS (St. Berthevin Cedex, France). Mice were provided with food and water ad libitum. U-87MG tumors were induced on the right shoulder by sub-cutaneous injection of 5 × 10^6 cells in a 100 μl cell suspension of a 1:1 v/v mixture of media with reconstituted basement membrane (GFR BD Matrigel™, Corning BV, Amsterdam, Holland). Static and dynamic PET imaging experiments were conducted on a microPET Focus 120 scanner (Concorde Microsystems). For dynamic PET imaging studies, approximately 5 min prior to recording PET images, mice (n = 3) were anesthetized by inhalation of 2–3 % isoflurane/oxygen gas mixture, fitted with an intravenous catheter and placed on the scanner bed in the prone position. Anesthesia was maintained using 1–2 % isoflurane. For all experiments, animals were injected with 100 μl sterile filtered phosphate-buffered saline formulations pH 7.4 of [^64Cu]Cu-8 and [^64Cu]Cu-9 (~ 500 pmol, 7–11 MBq). Dynamic scans were recorded from 0 to 1 h post radiotracer administration. List-mode data were acquired using a γ-ray energy window of 350–650 keV and a coincidence timing window of 6 ns. For the 24 h p.i. time point, mice were injected 24 h prior to image acquisition and placed in the cages. Five to ten minutes prior to static PET imaging, mice were anesthetized with isoflurane (2–4 % in air) and positioned in the scanner. Animals of the PET imaging studies were included in the ex vivo biodistribution studies (vide infra). Reconstruction was performed using unweighted OSEM2D. Image analysis was performed using AMIDE. Image counts per second per voxel (cps/voxel) were calibrated to activity concentrations (Bq ml^−1) by measuring a 3.5-cm cylinder phantom filled with a known concentration of radioactivity.

The subject of data set [4] is mice bearing U-87MG xenografts. The experiment in a line: in vivo. Particulars: mouse. How it is done:
as §2

Setting [5] is: female, athymic Balb/c nude, mouse, in vivo, iv, 1 h.

As for `N=C(N)NCCC[C@@H]1NC(=O)[C@H](CCCCNC(=O)CCCCn2ccnc2CN2CCN(Cc3nccn3CCCCC(=O)NCCCC[C@@H]3NC(=O)[C@@H](Cc4ccccc4)NC(=O)[C@H](CC(=O)O)NC(=O)CNC(=O)[C@H](CCCNC(=N)N)NC3=O)CCN(Cc3nccn3CCCCC(=O)NCCCC[C@@H]3NC(=O)[C@@H](Cc4ccccc4)NC(=O)[C@H](CC(=O)O)NC(=O)CNC(=O)[C@H](CCCNC(=N)N)NC3=O)CC2)NC(=O)[C@@H](Cc2ccccc2)NC(=O)[C@H](CC(=O)O)NC(=O)CNC1=O` [[^64Cu]Cu-9, metal not drawn], the “receptor-mediated (αvß3-specific) internalization” value in the data set on U-87MG cells (4 h) came to 8.7 ± 0.6%; in the data set with U-87MG cells (after 30 min), 0.7 ± 0.2%. Moreover, the specific surface-bound fraction in the data set with U-87MG cells is reported as no more than 0.1%. The tissue to tissue ratio at 1 h in the data set “in vivo [1]” (Tumor-to-kidney ratio) stood at 0.73 ± 0.11; in the data set “in vivo [1]” (Tumor-to-liver ratio), 1.03 ± 0.26; in the data set “in vivo [1]” (Tumor-to-muscle ratio), 14.1 ± 3.83. Besides, the “reduction of uptake in U-87MG xenografts by co-injection of c(RGDfK) 7” value in data set [2] was 60%. Further, in data set [2] (setting [5]), the Tumor-to-liver ratio was determined as 0.99. In addition, the Tumor-to-kidney ratio in data set [2] (mouse, in vivo) is 0.73. Moreover, the “fold higher tumor uptake compared with the monomer [^64Cu]Cu-8” value in data set [2] (mouse, in vivo) is given as ~ 2.5 fold. Besides, the figures for the tissue uptake per volume at 1 h in the data set “in vivo [3]” (5 mg/kg) and in “in vivo [3]” were 2.18 ± 0.66 %ID/mL and 4.42 ± 1.1 %ID/mL, respectively. Also, the “fold higher tumor uptake compared with the monomeric counterpart (PET images)” value in data set [4] is given as ~ 2 fold. Further, in data set [4], the “liver uptake, normal vs blocking groups (PET)” value is reported as “No significant differences”. The “time to maximum tumor accumulation (TAC)” value in data set [4] was 5 to 10 min.

With `Cn1ccnc1CN1CCN(CC(=O)NCCCC[C@@H]2NC(=O)[C@@H](Cc3ccccc3)NC(=O)[C@H](CC(=O)O)NC(=O)CNC(=O)[C@H](CCCNC(=N)N)NC2=O)CCN(Cc2nccn2C)CC1` [[^64Cu]Cu-8, metal not drawn], the “receptor-mediated (αvß3-specific) internalization” value turned out to be 1.4 ± 0.1% in the data set on U-87MG cells (4 h) and 0.2 ± 0.1% in the data set on U-87MG cells (after 30 min). In the data set with U-87MG cells, the specific surface-bound fraction is no more than 0.1%. In addition, the tissue to tissue ratio at 1 h came out at 15 ± 3.05 in “in vivo [1]” (Tumor-to-blood ratio), 0.86 ± 0.04 in “in vivo [1]” (Tumor-to-kidney ratio), 0.83 ± 0.1 in the data set “in vivo [1]” (Tumor-to-liver ratio) and 10.5 ± 4.79 in “in vivo [1]” (Tumor-to-muscle ratio). In addition, the “reduction of uptake in U-87MG xenografts by co-injection of c(RGDfK) 7” value in data set [2] is reported as 89%. The Tumor-to-blood ratio in data set [2] (setting [5]) was determined as 14.37. Further, the Tumor-to-kidney ratio in data set [2] (mouse, in vivo) stood at 0.86. In data set [2] (mouse, in vivo), the Tumor-to-liver ratio is 0.84. Besides, the values for the tissue uptake per volume at 1 h in the data set “in vivo [3]” (5 mg/kg) and in “in vivo [3]” were 0.91 ± 0.39 %ID/mL and 2.61 ± 0.65 %ID/mL, respectively. In addition, the “liver uptake, normal vs blocking groups (PET)” value in data set [4] is “No significant differences”. Besides, the “time to maximum tumor accumulation (TAC)” value in data set [4] was 5 to 10 min.
